Legend:
[1] = biological target: T1, Archaeoglobus fulgidus DsrAB dissimilatory sulfite reductase (Archaeoglobus fulgidus VC-16 …, UniProt Q59109 1-418; Q59110 1-366); assay: MST
[2] = biological target: T1, Archaeoglobus fulgidus DsrAB …; assay: SPR

T1 sequence (Q59109 whole entry, chain 1 of 2): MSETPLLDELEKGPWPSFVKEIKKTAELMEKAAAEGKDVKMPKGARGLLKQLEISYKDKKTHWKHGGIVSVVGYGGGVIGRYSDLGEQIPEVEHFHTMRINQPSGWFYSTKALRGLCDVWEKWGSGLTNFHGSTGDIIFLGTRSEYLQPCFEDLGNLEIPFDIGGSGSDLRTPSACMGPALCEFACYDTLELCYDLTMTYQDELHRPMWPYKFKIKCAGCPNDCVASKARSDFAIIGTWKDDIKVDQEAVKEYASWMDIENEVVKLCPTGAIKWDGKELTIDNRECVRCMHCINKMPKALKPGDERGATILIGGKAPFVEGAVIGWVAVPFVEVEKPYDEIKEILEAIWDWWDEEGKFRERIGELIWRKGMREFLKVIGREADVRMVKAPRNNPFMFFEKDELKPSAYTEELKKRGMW
T1 sequence (Q59110 whole entry, chain 2 of 2): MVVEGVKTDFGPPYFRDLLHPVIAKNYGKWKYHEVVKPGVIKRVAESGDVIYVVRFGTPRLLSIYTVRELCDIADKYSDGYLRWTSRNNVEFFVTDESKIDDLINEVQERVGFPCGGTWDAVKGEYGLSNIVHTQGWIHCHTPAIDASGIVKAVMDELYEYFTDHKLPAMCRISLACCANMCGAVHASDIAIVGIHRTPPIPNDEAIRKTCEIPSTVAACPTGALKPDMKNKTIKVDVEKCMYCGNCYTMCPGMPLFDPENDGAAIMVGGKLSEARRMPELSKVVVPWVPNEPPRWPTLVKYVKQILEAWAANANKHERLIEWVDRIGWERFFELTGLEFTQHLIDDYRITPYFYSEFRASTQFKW

Kd [1]: 350 ± 60 nM
Kd [2]: 540 ± 20 nM
B1: recombinant Archaeoglobus fulgidus DsrD with C-terminal His-tag (natural protein, Archaeoglobus fulgidus VC-16, UniProt P70742 1-77, looked up)
chain: MADYTEEDKQKVLAQLSKKTWKIPELAKILKMDKKVVKKIVQDLINEGVAGYWSSGSTTYVATKEYIEELEKKRAEG
modifications: RED-NHS dye on amines (Monolith NT Protein Labeling Kit RED-NHS second generation), in the MST experiment only

— publication PMC8794893 (Proceedings of the National Academy of Sciences of the …, 2022)
